The record followed here is US20140377289A1, “Metallodrugs Having Improved Pharmacological Properties, and Methods of Manufacture and Use Thereof” (MetalloPharm, LLC, priority 2011, published 2014).

Where no end group is shown, it is not given here. [ ]: non-standard residue; d: D form. Cha = N[C@@H](CC1CCCCC1)C(=O)O

Assay [1] deals with T1, S. aureus sortase A (S. aureus), Q2FV99.
T1 chain: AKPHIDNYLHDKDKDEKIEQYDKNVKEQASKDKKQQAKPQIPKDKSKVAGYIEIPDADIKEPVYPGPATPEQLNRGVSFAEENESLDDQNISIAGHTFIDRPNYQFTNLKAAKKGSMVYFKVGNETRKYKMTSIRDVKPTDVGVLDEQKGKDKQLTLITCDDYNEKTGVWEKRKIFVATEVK
Put plainly: apparent binding affinity (IC50) for S. aureus sortase A; assay not described.

Assay [2] addresses T2, B. anthracis lethal factor (B. anthracis), P15917.
T2 chain: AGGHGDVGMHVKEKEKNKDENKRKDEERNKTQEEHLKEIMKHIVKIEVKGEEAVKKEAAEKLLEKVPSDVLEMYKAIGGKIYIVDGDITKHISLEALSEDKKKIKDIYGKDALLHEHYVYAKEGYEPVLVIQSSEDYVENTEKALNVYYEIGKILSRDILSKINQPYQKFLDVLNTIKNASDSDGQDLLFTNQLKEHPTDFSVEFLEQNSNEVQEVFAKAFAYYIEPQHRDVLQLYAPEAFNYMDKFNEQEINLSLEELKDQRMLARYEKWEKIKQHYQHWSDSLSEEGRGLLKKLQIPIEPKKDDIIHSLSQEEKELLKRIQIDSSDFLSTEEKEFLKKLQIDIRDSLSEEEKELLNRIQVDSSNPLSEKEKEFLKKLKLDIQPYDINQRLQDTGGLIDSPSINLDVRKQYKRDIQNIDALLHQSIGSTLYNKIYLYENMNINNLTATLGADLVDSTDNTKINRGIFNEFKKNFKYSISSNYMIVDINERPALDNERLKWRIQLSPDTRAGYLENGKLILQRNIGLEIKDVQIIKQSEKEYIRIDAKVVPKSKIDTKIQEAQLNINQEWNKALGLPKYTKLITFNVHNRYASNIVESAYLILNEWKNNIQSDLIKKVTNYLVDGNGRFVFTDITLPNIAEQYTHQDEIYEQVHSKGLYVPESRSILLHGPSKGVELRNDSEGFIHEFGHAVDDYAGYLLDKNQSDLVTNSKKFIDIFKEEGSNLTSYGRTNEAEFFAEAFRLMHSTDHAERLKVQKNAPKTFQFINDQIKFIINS

Assay [3] concerns the target T2, B. anthracis lethal factor (B. …). Put plainly: cell-based or functional assay.
The target in assay [4] is HCV protease (hepatitis C virus (HCV)). Briefly: cell-based or functional assay.
The target is the same in assay [5]. Briefly: apparent binding affinity for HCV protease; method not described.
For assay [6] the target is unchanged. Briefly: inhibition constant for HCV protease (FIG. 1, left); method not described.
The target of assay [7] is T3, metalloproteinase ECE-1 protease, P42892.
T3 chain: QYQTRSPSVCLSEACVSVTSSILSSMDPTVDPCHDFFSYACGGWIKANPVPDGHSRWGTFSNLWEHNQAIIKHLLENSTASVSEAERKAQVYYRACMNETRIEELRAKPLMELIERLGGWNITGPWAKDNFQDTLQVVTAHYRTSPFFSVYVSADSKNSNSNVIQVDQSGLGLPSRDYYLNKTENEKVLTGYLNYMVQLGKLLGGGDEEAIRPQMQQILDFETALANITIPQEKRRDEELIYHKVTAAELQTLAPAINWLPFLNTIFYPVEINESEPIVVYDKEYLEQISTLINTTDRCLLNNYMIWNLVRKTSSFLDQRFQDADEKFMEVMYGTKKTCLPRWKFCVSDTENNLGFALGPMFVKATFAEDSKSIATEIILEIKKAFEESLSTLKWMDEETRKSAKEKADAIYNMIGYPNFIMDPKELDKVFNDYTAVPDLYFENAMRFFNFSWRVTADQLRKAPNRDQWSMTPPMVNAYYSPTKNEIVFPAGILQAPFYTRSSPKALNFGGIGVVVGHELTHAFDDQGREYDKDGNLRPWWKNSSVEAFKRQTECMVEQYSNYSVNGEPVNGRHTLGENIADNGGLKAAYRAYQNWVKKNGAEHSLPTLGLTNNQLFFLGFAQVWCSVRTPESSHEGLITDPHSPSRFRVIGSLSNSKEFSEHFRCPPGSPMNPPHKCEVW
Briefly: cell-based or functional assay.

For assay [8] the target is unchanged. Briefly: apparent binding affinity for ECE-1; method not described.
The target of assay [9] is HCV protease (hepatitis C virus (HCV)). Put plainly: affinity of metallopeptide for HCV protease; method not described.

What is called IC50 is the midpoint of a concentration-inhibition curve. Take GGHGLPETG (modifications not checked) [Cu-…]: the IC50 in assay [1] is above 100 µM.
A word on the kinact: it is the maximal first-order rate at which the target is inactivated. GCHP (modifications not checked) [Cu-GCHP] had a Ka in assay [2] of 45000 M⁻¹. Also, in assay [3], the kinact came to 0.077 min⁻¹.
The term Ki denotes a measure of affinity in units of concentration, obtained from inhibition or displacement. Higher therefore signals weaker binding. Turning to GGHGD[dE]LI[Cha]C-OH (also: Cu complex) [Cu-GGHGDeLI(Cha)C-CO2^-], in [4], the kinact came to 0.0014 min⁻¹ and the rate constant for inactivation kinact was below 0.083 h⁻¹. Further, in assay [5], the Ka came out at 2e+06 M⁻¹. Moreover, the Ki in assay [6] worked out at 0.5 µM.
As to KGHK (modifications not checked) [Cu-KGHK], in assay [2], the Ka came out at 125000 M⁻¹. In addition, the kinact in assay [3] came out at 0.035 min⁻¹.
As for GGHLPETG (modifications not checked) [Cu-GGHLPETG], the IC50 in assay [1] was above 100 µM.
For the molecule GGHGLPET (modifications not checked) [Cu-GGHGLPET], in assay [1], the IC50 is above 100 µM.
For the molecule GGHGD[dE]LI[Cha]T (also: Cu complex) [Cu-GGHGDeLI(Cha)T], in assay [4], the kinact turned out to be 0.042 min⁻¹. Moreover, the Ka in assay [5] was determined as 33000 M⁻¹.
Turning to GGHGGDF (modifications not checked) [Cu-GGHGGDF], the kinact in assay [7] was 0.5 min⁻¹. The Ka in assay [8] was 80000 M⁻¹.
Molecule GGHD[dE]LI[Cha]CP[Cha]DL [Gly-Gly-His-Asp-D-Glu-Leu-Ile-Cha-Cys-Pro-Cha-Asp-Leu] came in with an affinity in [9] of 10 nM.
For GGHLPET (modifications not checked) [Cu-GGHLPET], the IC50 in [1] was above 100 µM.
